Results on one substance are retold here after US20240165226A1, “COMBINATION TREATMENT OF CD38-EXPRESSING TUMORS” (GENMAB A/S, priority 2006, published 2024).

In assay [1] the target is T1, CHO cells transfected with human CD38 (CHO-CD38 cells) (Homo sapiens, UniProt P28907).
T1 construct: expressed in transfected cells; host or cells: CHO cells
The assay is described as follows: Enzymatic activity of cellular expressed CD38 (cGDPR production). The assay is classed as cell-based. The following applies: after 156 minutes; for cGDPribose production: CHO-CD38 cells. Here is the method:
The enzymatic activity of cellular expressed human CD38 was measured in an assay essentially as described in Graeff et al., J. Biol. Chem. 269, 30260-30267 (1994). Briefly, substrate NGD (80 μM) was incubated with […] CHO cells transfected with human CD38 (CHO-CD38 cells) in a buffer containing 20 mM Tris-HCl, pH 7.0 supplemented with 30 μg/ml IgG1. The production of cGDPR can be monitored spectrophotometrically at the emission wavelength of 410 nm (excitation at 300 nm). In this example an excitation filter of 340±60 nm and an emission filter of 430±8 nm was used. To test the effect of -005 and -003 on the enzymatic activity of cellular expressed CD38, CHO-CD38 cells were pre-incubated for 15′ at room temp. with various concentrations (30, 3, 0.3 and 0.03 μg/ml) of the different antibodies before adding the substrate NGD. The production of cGDPR was recorded at different time points after addition of substrate NGD (3, 6, 9, 12, 30, 45, 60, 112 and 156 min).

In assay [2] the test system is JK6L (a multiple myeloma cell line). The assay is described as follows: ADCC set up II, JK6L cells. The format is cell-based. Conditions: in words. Here is the method:
(§1) Human blood from human volunteers (university Erlangen, Erlangen, Germany) was diluted twice in RPMI 1640 and blood cells were layered on Ficoll (Lymphocyte Separation Medium […], 710 g, RT, 20 min; BioWhittaker, Cambrex Bio Science Verviers, Verviers, Belgium, cat. 17-829E, lot no. 0148 32). Peripheral blood mononuclear cells (MNCs) were collected from the interphase, washed and resuspended in RPMI 1640 culture medium supplemented with 10% FCS, 2 mM L-glutamine, 5 U/ml penicillin, 50 μg/ml streptomycin (all derived from BioWhittaker) to which 25 mM HEPES (BioWhittaker) was added.
(§2) Target B-cells (fresh plasma cell leukemia tumor cells, JK6L and AMO-1 B-cell lines, obtained from Dr. T. Valerius, University of Erlangen, Erlangen, Germany) were labeled with 20 μCi ^51Cr (Amersham Biosciences, Uppsala, Sweden) for 2 hours. After extensive washing in RPMI-10, cells were adjusted to 1×10^5 cells/ml. […] After incubation (3 hr, 37° C.), assays were stopped by centrifugation, and 51Cr release from triplicates was measured in counts per minute (cpm) in a scintillation counter. Percentage of cellular cytotoxicity was calculated using the following formula: […]
(§3) with maximal ^51Cr release determined by adding perchloric acid (3% final concentration) to target cells, and basal release was measured in the absence of sensitizing antibodies and effector cells.

Assay [3] has as its system luciferase-transfected Daudi cells. The assay is described as follows: Annexin-V apoptosis assay. The assay is classed as cell-based. Conditions: 5 μg/ml. As to the method:
Apoptosis assay was carried out according to the manufacturer's instructions (Annexin-V Apoptosis kit, BD Biosciences, Alphen a.d. Rijn, Netherlands). In short, CD38 mAbs were added to 2.5×10^5 cells (luciferase-transfected Daudi cells, in 0.5 ml RPMI^++ in a 24-wells plate), in a concentration of 5 μg/ml -003 or -005 or an anti-CD20 antibodies alone or in the presence of cross-blocking rb-anti-hIgG (50 μg/ml).
After incubation (37° C., 5% CO2, 20 hr), cells were harvested carefully, and washed with Binding Buffer (1200 rpm, 4° C., 5 min, BD Biosciences). Pellet was resuspended in 100 μl Binding Buffer. Then, 5 μl Annexin-V-FITC (BD Biosciences) and 10 μl PI (BD Biosciences) was added to the suspension and incubated for 15 minutes at RT. 400 μl Binding Buffer was added and the samples were measured (PI readout in FL2). For analysis of apoptotic cells, all Annexin-V-positive cells were counted by flow cytometry using a FACScalibur flow cytometer with CellQuest pro software (BD Biosciences). At least 10,000 events were collected for analysis. This population includes both PI-positive as well as PI-negative cells.

The target of the next assay is T2, HA-tagged CD38 (Homo sapiens, UniProt P28907).
T2 construct: The extracellular domain of human CD38 was amplified from plasmid pCIpuroCD38; made in house
Nature of the assay: Surface plasmon resonance (Biacore 3000). The assay is classed as binding. Conditions: 25° C., mean of 3 experiments±SD. Here is the method:
Binding of -003 and -005 to CD38 was tested using surface plasmon resonance. Briefly, purified antibodies were immobilized on a CM-5 sensor chip (Biacore, Uppsala, Sweden) via anime coupling. HA-tagged CD38 (see Example 3) was flowed over, and the binding of antigen to mAb was detected by a change in refractive index at the surface of the chip using a Biacore 3000 (Biacore).
Background: Surface plasmon resonance follows binding to a sensor surface in real time, without labels.

A further assay concerns the target T3, wt human CD38 (Homo sapiens, UniProt P28907).
T3 construct: The extracellular domain of human CD38 was amplified from plasmid pCIpuroCD38; signal peptide SPHMM (N); made in house; host or cells: Freestyle 293-F (HEK-293F), transient; culture supernatant used
The assay is described as follows: ELISA binding to wild type HA-CD38. Here is the method:
Freestyle™ 293-F (a HEK-293 subclone adapted to suspension growth and chemically defined Freestyle medium, (HEK-293F)) cells were obtained from Invitrogen and transfected with pEE13.4HACD38 and with the three constructs carrying the mutations T237A, Q272R and S274F, according to the manufacturer's protocol using 293fectin (Invitrogen). Culture supernatants of transfected cells were used in ELISA for anti-CD38 binding studies.
Culture supernatants of transfected HEK293F cells were diluted, applied to the ELISA plates and incubated for 1 hr at RT. After washing, serial dilutions of HuMabs -003 and -005 were added and incubated for 1 hr at RT. Bound antibodies were detected with HRP-conjugated goat-anti-human IgG antibodies. The assay was developed with ABTS (Roche, #1112597) and the absorbance was measured at 405 nm using a spectrophotometer.
A general note: ELISA stands for enzyme-linked immunosorbent assay.

Assay [4] relates to AMO-1 (a multiple myeloma cell line). The assay is described as follows: ADCC set up II, AMO-1 cells. The format is cell-based. The following applies: CD38 expression is low. As to the method:
as §1, §2, §3

Usually Kd stands for the equilibrium constant for the complex coming apart. Low readings indicate tighter binding, high ones weaker binding. For the substance “-005: human monoclonal IgG1 anti-CD38 antibody, VL region SEQ ID No:12 and VH region SEQ ID No:17”, the cGDPribose production in assay [1] (0.03 μg/ml antibody) is on record as 104 % of NGD control; in assay [1] (0.3 μg/ml antibody), 100 % of NGD control; in assay [1] (3 μg/ml antibody), 82 % of NGD control; in assay [1] (30 μg/ml antibody), 79 % of NGD control. Besides, the “reduced production of cGDPR” value in assay [1] (3 μg/ml) stood at 18%; in assay [1] (30 μg/ml), 21%. Further, in assay [2], the “lysis of JK6L by ADCC” value was “lysis is induced”. Further, the results for the induction of apoptosis entry in assay [3] (after cross-linking with rb-anti-hIgG (50 μg/ml)) and in assay [3] (without cross-linking) were “less able to induce apoptosis” and “do not induce apoptosis”, respectively. In addition, the KA with HA-tagged CD38 stood at 1.7e+08 ± 3.68e+07 M⁻¹. In the assay with HA-tagged CD38, this substance gave a Kd of 6.06 nM. This substance also came in with a ka with HA-tagged CD38 of 88800 ± 19500 M⁻¹ s⁻¹. Besides, the kd with HA-tagged CD38 amounted to 0.000522 ± 1.16e-05 s⁻¹. For the same substance, the “binding to wt human CD38” value with wt human CD38 is “bind”. In addition, in assay [4], the “lysis of AMO-1 by ADCC” value is recorded as “lysis is induced”.
